Experimental data published in paper PMC7404307.

Target: ternary troponin complex I-T-C (cTnI-cTnT-cTnC) (UniProt P19429+P45379+P63316)
Test: SPR imaging
Conditions: L-DNA (all L-2'-deoxyribose); SPRi: PBS (10 mM phosphate, 137 mM NaCl, 2.7 mM KCl, pH 7.4), 25 C; filter binding: PBS, RT, 1 h; AlphaLisa: selection buffer (PBS, 1 mg/mL BSA, 0.01 ug/mL …)

In the case of “CAGTGAGTGATGGTGAGGGCTTAGTTCGCCGCTCATGCCGAATCTCCTGTATAAATACCCACACTGTCCATACACG [A6 spiegelmer]”, the Kd is reported as 540 pM.

“CAGTGAGTGATGGTGAGGGTGAATCGGTGTCGACTATTAAATTAAGTTGTGGTTGTTCCCACACTGTCCATACACG [C6 spiegelmer]” showed a Kd of 305 pM.
